Publication PMC10786891, “Massively parallel profiling of RNA-targeting CRISPR-Cas13d”

T1: EsCas13d, nuclease-dead (Eubacterium siraeum, UniProt B0MS50, R295A;H300A;R849A;H854A)
T1 sequence: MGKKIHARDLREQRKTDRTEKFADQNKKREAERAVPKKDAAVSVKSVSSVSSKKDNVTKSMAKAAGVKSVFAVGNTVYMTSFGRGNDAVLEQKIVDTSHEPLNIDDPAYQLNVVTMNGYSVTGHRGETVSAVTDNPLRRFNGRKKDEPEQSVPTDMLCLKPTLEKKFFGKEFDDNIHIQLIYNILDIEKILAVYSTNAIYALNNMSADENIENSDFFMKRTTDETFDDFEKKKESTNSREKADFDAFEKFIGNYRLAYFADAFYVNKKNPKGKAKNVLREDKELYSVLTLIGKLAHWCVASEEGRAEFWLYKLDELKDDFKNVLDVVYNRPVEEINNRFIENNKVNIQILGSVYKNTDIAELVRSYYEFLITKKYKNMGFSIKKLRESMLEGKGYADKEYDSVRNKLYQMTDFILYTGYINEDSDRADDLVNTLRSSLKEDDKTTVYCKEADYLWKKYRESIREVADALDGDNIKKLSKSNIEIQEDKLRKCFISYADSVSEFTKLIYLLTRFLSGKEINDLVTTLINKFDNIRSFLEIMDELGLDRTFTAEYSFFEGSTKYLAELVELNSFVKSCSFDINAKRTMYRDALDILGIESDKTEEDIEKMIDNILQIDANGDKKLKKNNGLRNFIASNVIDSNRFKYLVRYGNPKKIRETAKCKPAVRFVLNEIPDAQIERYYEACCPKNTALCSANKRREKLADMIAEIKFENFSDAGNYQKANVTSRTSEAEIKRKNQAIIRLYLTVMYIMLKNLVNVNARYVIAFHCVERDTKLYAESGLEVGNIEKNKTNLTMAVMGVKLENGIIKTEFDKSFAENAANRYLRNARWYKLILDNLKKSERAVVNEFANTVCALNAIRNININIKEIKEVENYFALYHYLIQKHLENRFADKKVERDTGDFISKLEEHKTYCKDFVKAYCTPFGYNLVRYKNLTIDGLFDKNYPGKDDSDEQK

B1: target 1 insG 3' of 19,insA 3' of 5 (mixed)
RNA 1: CACCCGUGCAAAAAUGCAGGGGUCUAAAACUGAGCGGAUAACCUCUCUAUGG
RNA 2: GGGAAUGGAUCCACAUCUACGAAUUCGUACCAUGAGAGAGGUUAUCCGACUCACCGAGAUCGGAAGAGCACACGU
B2: target 1 insU 3' of 20,insU 3' of 2 (mixed)
RNA 1: CACCCGUGCAAAAAUGCAGGGGUCUAAAACUGAGCGGAUAACCUCUCUAUGG
RNA 2: GGGAAUGGAUCCACAUCUACGAAUUCGUACCAUUAGAGAGGUUAUCCGCUCUACCGAGAUCGGAAGAGCACACGU
B3: target 1 complement block 4-12 (mixed)
RNA 1: CACCCGUGCAAAAAUGCAGGGGUCUAAAACUGAGCGGAUAACCUCUCUAUGG
RNA 2: GGGAAUGGAUCCACAUCUACGAAUUCGUACCAUAGAGAGCAAUAGGCGUCACCGAGAUCGGAAGAGCACACGU
B4: target 1 insA 3' of 22,insC 3' of 5 (mixed)
RNA 1: CACCCGUGCAAAAAUGCAGGGGUCUAAAACUGAGCGGAUAACCUCUCUAUGG
RNA 2: GGGAAUGGAUCCACAUCUACGAAUUCGUACACAUAGAGAGGUUAUCCGCCUCACCGAGAUCGGAAGAGCACACGU
B5: target 1 complement block 1-11 (mixed)
RNA 1: CACCCGUGCAAAAAUGCAGGGGUCUAAAACUGAGCGGAUAACCUCUCUAUGG
RNA 2: GGGAAUGGAUCCACAUCUACGAAUUCGUACCAUAGAGAGGAAUAGGCGAGUCCGAGAUCGGAAGAGCACACGU
B6: target 1 insA 3' of 7,insC 3' of 1 (mixed)
RNA 1: CACCCGUGCAAAAAUGCAGGGGUCUAAAACUGAGCGGAUAACCUCUCUAUGG
RNA 2: GGGAAUGGAUCCACAUCUACGAAUUCGUACCAUAGAGAGGUUAUCACGCUCACCCGAGAUCGGAAGAGCACACGU
B7: target 1 insU 3' of 13,insU 3' of 6 (mixed)
RNA 1: CACCCGUGCAAAAAUGCAGGGGUCUAAAACUGAGCGGAUAACCUCUCUAUGG
RNA 2: GGGAAUGGAUCCACAUCUACGAAUUCGUACCAUAGAGAGUGUUAUCCUGCUCACCGAGAUCGGAAGAGCACACGU
B8: target 1 C6U,A9G (mixed)
RNA 1: CACCCGUGCAAAAAUGCAGGGGUCUAAAACUGAGCGGAUAACCUCUCUAUGG
RNA 2: GGGAAUGGAUCCACAUCUACGAAUUCGUACCAUAGAGAGGUUGUCUGCUCACCGAGAUCGGAAGAGCACACGU
B9: target 1 insC 3' of 8,insA 3' of 7 (mixed)
RNA 1: CACCCGUGCAAAAAUGCAGGGGUCUAAAACUGAGCGGAUAACCUCUCUAUGG
RNA 2: GGGAAUGGAUCCACAUCUACGAAUUCGUACCAUAGAGAGGUUAUCCACGCUCACCGAGAUCGGAAGAGCACACGU
B10: target 1 C7A,G15A (mixed)
RNA 1: CACCCGUGCAAAAAUGCAGGGGUCUAAAACUGAGCGGAUAACCUCUCUAUGG
RNA 2: GGGAAUGGAUCCACAUCUACGAAUUCGUACCAUAGAAAGGUUAUACGCUCACCGAGAUCGGAAGAGCACACGU
B11: target 1 G12A,G13A (mixed)
RNA 1: CACCCGUGCAAAAAUGCAGGGGUCUAAAACUGAGCGGAUAACCUCUCUAUGG
RNA 2: GGGAAUGGAUCCACAUCUACGAAUUCGUACCAUAGAGAAAUUAUCCGCUCACCGAGAUCGGAAGAGCACACGU
B12: target 1 insU 3' of 18,insU 3' of 2 (mixed)
RNA 1: CACCCGUGCAAAAAUGCAGGGGUCUAAAACUGAGCGGAUAACCUCUCUAUGG
RNA 2: GGGAAUGGAUCCACAUCUACGAAUUCGUACCAUAUGAGAGGUUAUCCGCUCUACCGAGAUCGGAAGAGCACACGU
B13: target 1 del11,del15 (mixed)
RNA 1: CACCCGUGCAAAAAUGCAGGGGUCUAAAACUGAGCGGAUAACCUCUCUAUGG
RNA 2: GGGAAUGGAUCCACAUCUACGAAUUCGUACCAUAGAAGGUAUCCGCUCACCGAGAUCGGAAGAGCACACGU
B14: target 1 insU 3' of 15,insA 3' of 4 (mixed)
RNA 1: CACCCGUGCAAAAAUGCAGGGGUCUAAAACUGAGCGGAUAACCUCUCUAUGG
RNA 2: GGGAAUGGAUCCACAUCUACGAAUUCGUACCAUAGAGUAGGUUAUCCGCAUCACCGAGAUCGGAAGAGCACACGU
B15: target 1 complement block 2-11 (mixed)
RNA 1: CACCCGUGCAAAAAUGCAGGGGUCUAAAACUGAGCGGAUAACCUCUCUAUGG
RNA 2: GGGAAUGGAUCCACAUCUACGAAUUCGUACCAUAGAGAGGAAUAGGCGAGACCGAGAUCGGAAGAGCACACGU
B16: target 1 insG 3' of 22,insC 3' of 22 (mixed)
RNA 1: CACCCGUGCAAAAAUGCAGGGGUCUAAAACUGAGCGGAUAACCUCUCUAUGG
RNA 2: GGGAAUGGAUCCACAUCUACGAAUUCGUACGCCAUAGAGAGGUUAUCCGCUCACCGAGAUCGGAAGAGCACACGU
B17: target 1 G5C,A20C (mixed)
RNA 1: CACCCGUGCAAAAAUGCAGGGGUCUAAAACUGAGCGGAUAACCUCUCUAUGG
RNA 2: GGGAAUGGAUCCACAUCUACGAAUUCGUACCCUAGAGAGGUUAUCCCCUCACCGAGAUCGGAAGAGCACACGU
B18: target 1 insC 3' of 19,insA 3' of 11 (mixed)
RNA 1: CACCCGUGCAAAAAUGCAGGGGUCUAAAACUGAGCGGAUAACCUCUCUAUGG
RNA 2: GGGAAUGGAUCCACAUCUACGAAUUCGUACCAUCAGAGAGGUAUAUCCGCUCACCGAGAUCGGAAGAGCACACGU
B19: target 1 insA 3' of 17,insU 3' of 6 (mixed)
RNA 1: CACCCGUGCAAAAAUGCAGGGGUCUAAAACUGAGCGGAUAACCUCUCUAUGG
RNA 2: GGGAAUGGAUCCACAUCUACGAAUUCGUACCAUAGAAGAGGUUAUCCUGCUCACCGAGAUCGGAAGAGCACACGU
B20: target 1 insG 3' of 18,insA 3' of 15 (mixed)
RNA 1: CACCCGUGCAAAAAUGCAGGGGUCUAAAACUGAGCGGAUAACCUCUCUAUGG
RNA 2: GGGAAUGGAUCCACAUCUACGAAUUCGUACCAUAGGAGAAGGUUAUCCGCUCACCGAGAUCGGAAGAGCACACGU
B21: target 1 insG 3' of 18,insU 3' of 5 (mixed)
RNA 1: CACCCGUGCAAAAAUGCAGGGGUCUAAAACUGAGCGGAUAACCUCUCUAUGG
RNA 2: GGGAAUGGAUCCACAUCUACGAAUUCGUACCAUAGGAGAGGUUAUCCGUCUCACCGAGAUCGGAAGAGCACACGU
B22: target 1 insC 3' of 17,insC 3' of 16 (mixed)
RNA 1: CACCCGUGCAAAAAUGCAGGGGUCUAAAACUGAGCGGAUAACCUCUCUAUGG
RNA 2: GGGAAUGGAUCCACAUCUACGAAUUCGUACCAUAGCACGAGGUUAUCCGCUCACCGAGAUCGGAAGAGCACACGU
B23: target 1 C4U,U11C (mixed)
RNA 1: CACCCGUGCAAAAAUGCAGGGGUCUAAAACUGAGCGGAUAACCUCUCUAUGG
RNA 2: GGGAAUGGAUCCACAUCUACGAAUUCGUACCAUAGAGAGGCUAUCCGUUCACCGAGAUCGGAAGAGCACACGU
B24: target 1 insU 3' of 18,insU 3' of 7 (mixed)
RNA 1: CACCCGUGCAAAAAUGCAGGGGUCUAAAACUGAGCGGAUAACCUCUCUAUGG
RNA 2: GGGAAUGGAUCCACAUCUACGAAUUCGUACCAUAUGAGAGGUUAUCUCGCUCACCGAGAUCGGAAGAGCACACGU

These binders were tested against T1, EsCas13d, nuclease-dead (assay: crRNA (strand 1, pre-loaded); Mg2+; 40 mM Tris-HCl pH 7.5, 150 mM NaCl, 6 mM MgCl2, 1 mM DTT, 0.1% Tween-20, 0.2 mg/ml BSA; 25 C; 10 min per concentration, then washed). Settings: tags: His6-TwinStrep-SUMO cleaved; N-terminal SNAP kept (SNAP-Surface 488); label: 3' end held by stalled T7 RNA polymerase.

Row | Binder | Kd
1 | B1 | 42 ± 5 nM
2 | B2 | 16.3 ± 1.6 nM
3 | B3 | 19.6 ± 1.3 nM
4 | B4 | 27.7 ± 3.5 nM
5 | B5 | 13.3 ± 0.5 nM
6 | B6 | 5.8 ± 0.4 nM
7 | B7 | 17.9 ± 1.3 nM
8 | B8 | 14.2 ± 0.9 nM
9 | B9 | 15 ± 0.6 nM
10 | B10 | 14.6 ± 0.5 nM
11 | B11 | 5.2 ± 0.23 nM
12 | B12 | 25.8 ± 2.4 nM
13 | B13 | 35 ± 5 nM
14 | B14 | 9.4 ± 0.8 nM
15 | B15 | 12.3 ± 0.33 nM
16 | B16 | 9.1 ± 0.4 nM
17 | B17 | 47 ± 7 nM
18 | B18 | 98 ± 16 nM
19 | B19 | 14.5 ± 0.8 nM
20 | B20 | 61 ± 10 nM
21 | B21 | 65 ± 11 nM
22 | B22 | 27.3 ± 1.6 nM
23 | B23 | 27 ± 5 nM
24 | B24 | 47 ± 4 nM
